# Results as given in publication PMC7870846, “Incorporation of sensing modalities into de novo designed fluorescence-activating proteins” (Nature Communications, 2021).
# Numbering of substitutions follows the chain as printed.
# B1: mFAP2: previously reported mini-fluorescence-activating protein, initial design (protein)
# chain: SRAAQLLPGTWQVTMTNEDGQTSQGQMHFQPRSPYTMDVVAQGTISDGRPISGYGKVTVKTPDTLDVDITYPSLGNIKAQGQITMDSPTQFKFDATTKGAGNFTGRLTGTLQRQE
# B2: mFAP_pH: particularly pH-responsive variant (protein)
# chain: B1 chain with V39I, S52V, V57A, V67I, A100E, G101N, N102D, T104H
# B3: aBFL1: designed binding partner of BFL1 (protein)
# chain: GADPKKVLDKAKDQAENRVRELKQKLEELYKEARKLDLTQEKRKKLEVATLGAVLAAHGDILNAIMQAKEEADKLKKAGLVNSQQLDELKRRLEELKEEALRKASDYGNEFHLKRRYG
# B4: aBCL2: designed binding partner of BCL2 (protein)
# chain: GADPKKVLDKAKDEAENRVRELKQRLEELYKEARKLDLTQEMRQELVDKARAASLQANGDIFYAILRALAEAEKLKKAGLVNSQQLDELKRRLEELAEEARRKAEKLRDEFRLKLEYG
# Legend:
# [1] = parameters: method as in PMID 30209393; conditions: read-out: Kd for the phenolate form of DFHBI; cited from earlier work
# [2] = with DFHBI; cited from earlier work
# [3] = In vitro chromophore titration with DFHBI (fluorescence, single-binding site isotherm fit)
# Protocol: Fluorescence endpoints were measured on a Synergy Neo2 hybrid multi-mode reader (BioTek) in flat bottom, black polystyrene, non-binding surface 96-well microplates (Corning 3650). In measuring chromophore-binding affinities (Fig. 1d, e), mFAP2, mFAP2a, and mFAP2b, and mFAP10 were produced by large-scale protein purification and SEC purification. Proteins were aliquoted in eight technical replicates in 200 μL final volumes to 20.0 nM final concentration in ten serial dilutions ( 10 dilution factor) of DFHBI starting from 31.6 μM DFHBI or 31.6 μM DFHBI-1T final concentrations, including an eleventh condition without chromophore. Fluorescence was excited at λex = 468 nm and fluorescence emission measured at λem = 530 nm. Background fluorescence endpoints of wells with identical chromophore concentrations but purified protein replaced with an identical volume of high-salt Tev cleavage buffer were measured, and fluorescence endpoints subtracted from those measured with protein. Background-subtracted data were averaged and the means normalized from 0 to 1 and fit to a single-binding site isotherm function using non-linear least squares fitting to obtain a fitted Kd value (Table 1), and the fit scaled to the maximum mean value (Fig. 1d, e).
# [4] = Photophysical characterization: absorbance, excitation/emission spectra, extinction coefficients, quantum yields; format: physicochemical
# Protocol: Protein preparation: mFAP2a, mFAP2b, and mFAP10 were produced by large-scale protein purification and SEC purification, and dialyzed overnight into DPBS that was adjusted to pH 7.40 using NaOH.
# Chromophore preparation: DFHBI (Lucerna) and DFHBI-1T (Lucerna) were dissolved to 20.0 mM in 100% DMSO, and diluted in DPBS (pH 7.40) to measure absorbances on a Jasco V-750 spectrophotometer at peak absorbance wavelengths (417 nm for DFHBI and 422 nm for DFHBI-1T). Following background subtraction of identical buffer without chromophore, Beer’s Law was used to calculate the molar chromophore concentrations of the stock solutions using previously reported extinction coefficients.
# Preparation of protein–chromophore complexes: For quantum yield measurements, 1.00 μM, 836 nM, or 919 nM chromophore solutions in DPBS (pH 7.40) at 4.00 mL final volumes were prepared for the following eight conditions: DFHBI only, DFHBI-1T only, 43.5 µM 6xHis-mFAP10 with DFHBI, 43.5 µM 6xHis-mFAP10 with DFHBI-1T, 134 μM 6xHis-mFAP2a with DFHBI, 134 μM 6xHis-mFAP2a with DFHBI-1T, 206 μM 6xHis-mFAP2b with DFHBI, and 206 μM 6xHis-mFAP2b with DFHBI-1T.
# Extinction coefficients: Absorbance spectra of protein–chromophore complexes were first measured with a Thermo Scientific BioMate 3S UV–Vis Spectrophotometer (1 nm interval, 800 nm min^−1). The extinction coefficients were then calculated using Beer’s Law:12 A=ε⋅b⋅c, where A is peak absorbance, ε is extinction coefficient, b is path length (1 cm), and c is concentration (1.00 μM, 836 nM, or 919 nM).
# Relative quantum yield: A Perkin-Elmer LS-B Luminescence Spectrophotometer (10 nm bandwidth, 1 nm interval, 100 nm min^−1) was used. The fluorescence emission spectra of the protein–chromophore complexes (in DPBS, pH 7.40) and reference dye Acridine Yellow G (in methanol) were first obtained, and the quantum yield was then calculated using the equation[53]:13 ϕc=ϕr⋅1−10^−Ar(λex)/1−10^−Ac(λex)⋅∫Fc(λ)⋅dλ/∫Fr(λ)⋅dλ⋅nc2/nr2, where ϕ is quantum yield, A(λex) is absorbance at the excitation wavelength λex ( λex = 440 nm), F is fluorescence emission, n is refractive index of the solution (1.3350 for DPBS at pH 7.40 and 1.3284 for methanol), and the subscripts “c” and “r” refer to the protein–chromophore complex measured and the reference dye, respectively. […]
# Absolute quantum yield: An integrating sphere instrument (Hamamatsu C9920-12) (6 nm excitation bandwidth, 1 nm interval) and a high-sensitivity photonic multi-channel analyzer (Hamamatsu C10027-01) were used to measure a light emission spectrum. Absolute quantum yields were measured for solutions of protein–chromophore complexes in DPBS (pH 7.40) in which ≥95% of the total chromophore was occupying the protein-binding pocket (Table 1). […]
# [5] = pH-dependent fluorescence assays (pH titration); format: biochemical; conditions: from pH 8.38 to pH 3.63
# Protocol: In measuring pH-dependent fluorescence (Fig. 3d–i), Na2HPO4-citrate buffer supplemented with 150 mM NaCl at unique pH values were produced via mixing various volumes of 100 mM citric acid (Sigma Aldrich), 200 mM Na2HPO4 (Sigma Aldrich), and 2.00 M NaCl, and final pHs quantified via an Accumet AB15 Basic pH meter (Fisher Scientific). pHRed and pHluorin2 were produced via large-scale protein purification, 6xHis-tag removal and size-exclusion chromatography (SEC) purification, and mFAP_pH and mFAP2b were produced via large-scale protein purification and SEC purification. pH-dependent fluorescence was measured at […] final protein concentration for mFAP2b, mFAP_pH and pHRed, and 170 nM final concentration for pHluorin2, at each pH in technical triplicate in 200 μL final volumes per well. […] In measuring fluorescence excitation spectra at each pH (Fig. 3d), excitation wavelengths were set to the range λex = 300–530 nm and fluorescence emission measured at λem = 562 nm. In measuring pH-dependent fluorescence excitation spectra at pH 3.76 and pH 7.34 (Fig. 3f, g), excitation spectra were measured using excitation wavelengths in the range λex = 300–540 nm and emission wavelength λem = 592 nm. […]
# BCL2 = target: BCL2; parameters: method as in PMID 27805565; conditions: read-out: dissociation constant (Kd); cited from earlier work
molecule,measurement,setting,value
B1,Kd,[1],~180 nM
same,absolute fluorescence quantum yield (ϕc),[2],2.1%
same,higher affinity for DFHBI than DFHBI-1T,[3],~ 30 fold
same,brighter fluorescence with DFHBI-1T than DFHBI,[4],~ 2.7 fold
B2,fold-change in ratiometric fluorescence (Fratio),[5],~ 250 fold
B3,Kd,BCL2,320 ± 40 nM
B4,Kd,BCL2,0.8 ± 0.5 nM
